Reference: US20190002588A1 (NATIONAL UNIVERSITY CORPORATION CHIBA UNIVERSITY, published 2019)

T1: glutathione-S-transferase (GST)-His-mouse Myl9 (mouse, UniProt Q9CQ19 2-172)
T1 construct: The order of the pieces follows the printed name; not shown: glutathione-S-transferase tag of the pET42b vector
T1 sequence: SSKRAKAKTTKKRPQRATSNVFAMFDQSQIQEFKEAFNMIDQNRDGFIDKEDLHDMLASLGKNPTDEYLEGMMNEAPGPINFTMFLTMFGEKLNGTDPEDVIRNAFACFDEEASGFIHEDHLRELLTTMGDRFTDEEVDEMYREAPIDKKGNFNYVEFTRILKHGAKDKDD

T2: human Myl12b-His (human, UniProt O14950 1-172)
T2 construct: Made in E. coli; GST tag cleaved with PreScission Protease; DTT-treated monomer
T2 sequence: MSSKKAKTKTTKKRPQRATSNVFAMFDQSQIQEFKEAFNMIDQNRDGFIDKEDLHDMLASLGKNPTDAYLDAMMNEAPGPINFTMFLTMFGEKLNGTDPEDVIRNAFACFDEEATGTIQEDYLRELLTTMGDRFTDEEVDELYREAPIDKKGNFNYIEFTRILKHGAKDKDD

T3: human Myl12a-His (human, UniProt P19105 1-171)
T3 construct: Made in E. coli; GST tag cleaved with PreScission Protease; DTT-treated monomer
T3 sequence: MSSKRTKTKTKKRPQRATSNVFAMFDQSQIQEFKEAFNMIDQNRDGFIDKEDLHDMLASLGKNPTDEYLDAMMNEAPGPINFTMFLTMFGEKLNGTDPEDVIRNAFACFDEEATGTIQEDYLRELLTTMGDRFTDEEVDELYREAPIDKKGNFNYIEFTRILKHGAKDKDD

T4: human Myl9-His (human, UniProt P24844 2-172, limits assumed)
T4 construct: Made in E. coli; the GST tag was cleaved with PreScission Protease
T4 sequence: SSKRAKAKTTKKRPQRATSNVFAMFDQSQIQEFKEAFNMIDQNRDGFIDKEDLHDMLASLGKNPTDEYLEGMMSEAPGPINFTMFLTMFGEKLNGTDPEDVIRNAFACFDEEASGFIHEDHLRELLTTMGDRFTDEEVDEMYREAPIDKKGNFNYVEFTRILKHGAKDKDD


Tests used:
[1] = biological target: T1, glutathione-S-transferase …; experiment: ELISA, GST-His-mouse Myl9 coated, anti-Flag-HRP
Method: Next, ELISA was performed in order to analyze the presence or absence of association between mouse Myl9 and mouse CD69 (FIGS. 3A and 3B). Specifically, GST-His-mouse Myl3 protein and GST-His-mouse Myl9 protein were added at a concentration of 5 μg/mL, and this was incubated overnight at 4° C. to immobilize them onan ELISA plate. On the next day, Block Ace (Sumitomo Dainippon Pharma Co., Ltd.) was employed to allow blocking at […] temperature for one hour, and then this was washed three times with a wash buffer (50 mM HEPES (pH 6.5), 150 mM NaCl, and 0.02% Tween 20). Different concentration of 3× Flag mouse CD69 EC protein was added to each well, and this was reacted at room temperature for one and a half hours. In FIG. 3B, 3× Flag mouse CD69 EC protein in which the N-linked sugar chain was cleaved with PNGase F (NEB) was employed. The cleaving treatment of the N-linked sugar chain was performed by employing 1,000 U of PNGase F for 4 μg of 3× Flag mouse CD69 EC protein. After washing three times with the wash buffer, HRP-labeled anti-Flag (M2) antibody (Sigma) was added, this was reacted at room temperature for one hour, and then washed five times with the wash buffer. TMB solution (BIO-RAD) was used as the coloring substrate, and the reaction was quenched with 1N H₂SO₄. SpectraMAX Paradigm (Molecular Device) was employed to measure the value at 450 nm.

[2] = biological target: T2, human Myl12b-His; experiment: ELISA, human Myl12b-His coated, anti-human IgG-HRP
Method: (§1) The binding ability of chimeric and humanized antibodies prepared from Antibody A against human Myl12a and Myl12b was evaluated following the steps below by ELISA. Human Myl3-His, human Myl9-His, human Myl12a-His and human Myl12b-His were coated onto the wells of a 96-well plate (Nunc), respectively. After an overnight incubation at 4° C., the wells were blocked at room temperature for one hour with 1× Block Ace (DS Pharma Biomedical Co., Ltd.). After washing three times with 0.02% Tween 20/PBS, the chimeric and humanized antibodies were diluted at the concentration of 0.01, 0.1 and 1 μg/mL, respectively and added to the wells. After incubation at room temperature for one hour and washing three times, horseradish peroxidase-labeled anti-human IgG antibody (Jackson ImmunoResearch Laboratories) was added, and this was incubated at room temperature for one hour. After washing 5 times, TMBZ (3,3′,5,5′-tetramethylbenzidine) solution was added to the wells, and this was incubated for 5-20 minutes at room temperature. An equal amount of reaction quenching solution (2N H₂SO₄) was added to the wells, and absorbance at 450 nm was read with a microplate reader (Thermo Scientific).

[3] = biological target: T3, human Myl12a-His; experiment: ELISA, human Myl12a-His coated, anti-human IgG-HRP
Method: as §1

[4] = biological target: T4, human Myl9-His; experiment: ELISA, human Myl9-His coated, anti-human IgG-HRP
Method: The binding ability against human Myl9 was evaluated following the steps below by ELISA. Human Myl3-His and human Myl9-His were coated onto the wells of a 96-well plate (Nunc). After an overnight incubation at 4° C., the wells were blocked at room temperature for one hour with 1× Block Ace (DS Pharma Biomedical Co., Ltd.). After washing three times with 0.02% Tween 20/PBS, seven serial dilutions by six folds of the chimeric and humanized antibodies were made from a concentration of 10 μg/mL and added to the wells. After incubation at room temperature for one hour and washing three times, horseradish peroxidase-labeled anti-human IgG antibody (Jackson ImmunoResearch Laboratories) was added, and this was incubated at room temperature for one hour. After washing 5 times, TMBZ (3,3′,5,5′-tetramethylbenzidine) solution was added to the wells, and this was incubated for 5-20 minutes at room temperature. An equal amount of reaction quenching solution (2N H₂SO₄) was added to the wells, and absorbance at 450 nm was read with a microplate reader (PerkinElmer).

[5] = biological target: T5, human Myl3-His (human, UniProt P08590 2-195, limits assumed); experiment: ELISA at 0.01, 0.1 and 1 µg/mL, human Myl3-His coated, anti-human IgG-HRP
T5 construct: Made in E. coli; the GST tag was cleaved with PreScission Protease
T5 sequence (P08590 2-195 limits assumed): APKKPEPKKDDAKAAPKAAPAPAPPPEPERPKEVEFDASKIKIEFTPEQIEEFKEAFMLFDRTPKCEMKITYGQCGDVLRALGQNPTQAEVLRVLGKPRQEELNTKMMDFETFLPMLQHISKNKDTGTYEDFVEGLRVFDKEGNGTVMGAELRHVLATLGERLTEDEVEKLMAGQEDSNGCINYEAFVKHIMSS
Method: as §1

binding result [1]	binding result [2]	binding result [3]	binding result [4]	binding result [5]	Binder
binds	–	–	–	–	3× Flag-mouse CD69 EC (with sugar chain) (receptor, not shown: small tags and cut ends, N-linked sugar chains present (made in Expi293F cells, not PNGase F treated), Secreted from Expi293F cells and purified on Anti-Flag M2 gel; also called 3× Flag mouse CD69 EC protein; mouse CD69 extracellular region protein) NVGKYNCPGLYEKLESSDHHVATCKNEWISYKRTCYFFSTTTKSWALAQRSCSEDAATLAVIDSEKDMTFLKRYSGELEHWIGLKNEANQTWKWANGKEFNSWFNLTGSGRCVSVNHKNVTAVDCEANFHWVCSKPSR
binds	–	–	–	–	PNGase F-treated 3× Flag-mouse CD69 EC (without sugar chain) (receptor, not shown: small tags and cut ends, N-linked sugar chain cleaved with PNGase F, also called 3× Flag-mouse CD69 EC subjected to sugar chain cleaving treatment; mouse CD69 extracellular region protein) NVGKYNCPGLYEKLESSDHHVATCKNEWISYKRTCYFFSTTTKSWALAQRSCSEDAATLAVIDSEKDMTFLKRYSGELEHWIGLKNEANQTWKWANGKEFNSWFNLTGSGRCVSVNHKNVTAVDCEANFHWVCSKPSR
–	binds	binds	binds	no binding (tested: 1 µg/mL)	Humanized antibody No. 113 (antibody, human IgG2, kappa, V domains shown, human IgG2 (V234A, G237A, C-terminal Lys deleted) / kappa; Expi293F, Protein A purified; also called HK1-6/L1-5) VH: QVQLVQSGAEVKKPGSSVKVSCKASGGTFSDYEMHWVRQAPGQGLEWMGAIDPETGGTAYNQKFKGRVTITADKSTSTAYMELRSLRSEDTAVYYCADYDYDGFAYWGQGTLVTVSS VL: DIVMTQSPLSLSITPGEQASISCRSSQSLVHSNGNTYLHWYLQKPGQSPQLLISKVSNRFSGVPDRFSGSGSGTDFTLKISRVEAEDVGVYFCSQNTHVPPLTFGGGTKVEIKR
–	binds	binds	binds	no binding (tested: 1 µg/mL)	Humanized antibody No. 115 (antibody, human IgG2, kappa, V domains shown, human IgG2 (V234A, G237A, C-terminal Lys deleted) / kappa; Expi293F, Protein A purified; also called HK1-A/L1-5) VH: QVQLVQSGAEVKKPGSSVKVSCKASGYTFSDYEMHWVRQAPGQGLEWIGAIDPETGGTAYNQKFKGRATITADKSTSTAYMELRSLRSEDTAVYYCTDYDYDGFAYWGQGTLVTVSS VL: DIVMTQSPLSLSITPGEQASISCRSSQSLVHSNGNTYLHWYLQKPGQSPQLLISKVSNRFSGVPDRFSGSGSGTDFTLKISRVEAEDVGVYFCSQNTHVPPLTFGGGTKVEIKR
–	binds	binds	binds	no binding (tested: 1 µg/mL)	Humanized antibody No. 116 (antibody, human IgG2, kappa, V domains shown, human IgG2 (V234A, G237A, C-terminal Lys deleted) / kappa; Expi293F, Protein A purified; also called HK2-5/L1-5) VH: QVQLVQSGAEVKKPGASVKVSCKASGYTFTDYEMHWVRQAPGQGLEWMGAIDPETGGTAYNQKFKGRVTMTADTSTSTAYMELSSLRSEDTAVYYCADYDYDGFAYWGQGTLVTVSS VL: DIVMTQSPLSLSITPGEQASISCRSSQSLVHSNGNTYLHWYLQKPGQSPQLLISKVSNRFSGVPDRFSGSGSGTDFTLKISRVEAEDVGVYFCSQNTHVPPLTFGGGTKVEIKR
–	binds	binds	binds	no binding (tested: 1 µg/mL)	Humanized antibody No. 112 (antibody, human IgG2, kappa, V domains shown, human IgG2 (V234A, G237A, C-terminal Lys deleted) / kappa; Expi293F, Protein A purified; also called HK1-5/L1-5) VH: QVQLVQSGAEVKKPGSSVKVSCKASGGTFSDYEMHWVRQAPGQGLEWMGAIDPETGGTAYNQKFKGRVTITADKSTSTAYMELSSLRSEDTAVYYCADYDYDGFAYWGQGTLVTVSS VL: DIVMTQSPLSLSITPGEQASISCRSSQSLVHSNGNTYLHWYLQKPGQSPQLLISKVSNRFSGVPDRFSGSGSGTDFTLKISRVEAEDVGVYFCSQNTHVPPLTFGGGTKVEIKR
–	binds	binds	binds	no binding (tested: 1 µg/mL)	Humanized antibody No. 111 (antibody, human IgG2, kappa, V domains shown, human IgG2 (V234A, G237A, C-terminal Lys deleted) / kappa; Expi293F, Protein A purified; also called HA1-4/L1-5) VH: QVQLVQSGAEVKKPGSSVKVSCKASGYTFTDYEMHWVRQAPGQGLEWMGAIDPETGGTAYAQKFQGRATITADKSTSTAYMELRSLRSEDTAVYYCADYDYDGFAYWGQGTLVTVSS VL: DIVMTQSPLSLSITPGEQASISCRSSQSLVHSNGNTYLHWYLQKPGQSPQLLISKVSNRFSGVPDRFSGSGSGTDFTLKISRVEAEDVGVYFCSQNTHVPPLTFGGGTKVEIKR
–	binds	binds	binds	no binding (tested: 1 µg/mL)	Humanized antibody No. 110 (antibody, human IgG2, kappa, V domains shown, human IgG2 (V234A, G237A, C-terminal Lys deleted) / kappa; Expi293F, Protein A purified; also called HA1-6/L1-5) VH: QVQLVQSGAEVKKPGSSVKVSCKASGYTFTDYEMHWVRQAPGQGLEWMGAIDPETGGTAYAQKFQGRVTITADKSTSTAYMELRSLRSEDTAVYYCADYDYDGFAYWGQGTLVTVSS VL: DIVMTQSPLSLSITPGEQASISCRSSQSLVHSNGNTYLHWYLQKPGQSPQLLISKVSNRFSGVPDRFSGSGSGTDFTLKISRVEAEDVGVYFCSQNTHVPPLTFGGGTKVEIKR
–	binds	binds	binds	no binding (tested: 1 µg/mL)	Humanized antibody No. 114 (antibody, human IgG2, kappa, V domains shown, human IgG2 (V234A, G237A, C-terminal Lys deleted) / kappa; Expi293F, Protein A purified; also called HK1-4/L1-5) VH: QVQLVQSGAEVKKPGSSVKVSCKASGGTFSDYEMHWVRQAPGQGLEWMGAIDPETGGTAYNQKFKGRATITADKSTSTAYMELRSLRSEDTAVYYCADYDYDGFAYWGQGTLVTVSS VL: DIVMTQSPLSLSITPGEQASISCRSSQSLVHSNGNTYLHWYLQKPGQSPQLLISKVSNRFSGVPDRFSGSGSGTDFTLKISRVEAEDVGVYFCSQNTHVPPLTFGGGTKVEIKR
